Measurements: patent US20180016312A1 (Pieris, published 2018)
Positions count from the first letter of the chain named.

B1: human angiopoietin-2 (ligand, UniProt O15123 19-496, looked up)
chain: YNNFRKSMDSIGKKQYQVQHGSCSYTFLLPEMDNCRSSSSPYVSNAVQRDAPLEYDDSVQRLQVLENIMENNTQWLMKLENYIQDNMKKEMVEIQQNAVQNQTAVMIEIGTNLLNQTAEQTRKLTDVEAQVLNQTTRLELQLLEHSLSTNKLEKQILDQTSEINKLQDKNSFLEKKVLAMEDKHIIQLQSIKEEKDQLQVLVSKQNSIIEELEKKIVTATVNNSVLQKQQHDLMETVNNLLTMMSTSNSAKDPTVAKEEQISFRDCAEVFKSGHTTNGIYTLTFPNSTEEIKAYCDMEAGGGGWTIIQRREDGSVDFQRTWKEYKVGFGNPSGEYWLGNEFVSQLTNQQRYVLKIHLKDWEGNEAYSLYEHFYLSSEELNYRIHLKGLTGTAGKISSISQPGNDFSTKDGDNDKCICKCSQMLTGGWWFDACGPSNLNGMYYPQRQNTNKFNGIKWYYWKGSGYSLKATTMMIRPADF
notes: Bought recombinant protein with a His tag (detected by anti-HIS-tag antibody); also called human Ang-2; hAng-2
B2: mouse angiopoietin-2 (ligand, UniProt O35608 19-496, looked up)
chain: YSNFRKSVDSTGRRQYQVQNGPCSYTFLLPETDSCRSSSSPYMSNAVQRDAPLDYDDSVQRLQVLENILENNTQWLMKLENYIQDNMKKEMVEIQQNVVQNQTAVMIEIGTSLLNQTAAQTRKLTDVEAQVLNQTTRLELQLLQHSISTNKLEKQILDQTSEINKLQNKNSFLEQKVLDMEGKHSEQLQSMKEQKDELQVLVSKQSSVIDELEKKLVTATVNNSLLQKQQHDLMETVNSLLTMMSSPNSKSSVAIRKEEQTTFRDCAEIFKSGLTTSGIYTLTFPNSTEEIKAYCDMDVGGGGWTVIQHREDGSVDFQRTWKEYKEGFGSPLGEYWLGNEFVSQLTGQHRYVLKIQLKDWEGNEAHSLYDHFYLAGEESNYRIHLTGLTGTAGKISSISQPGSDFSTKDSDNDKCICKCSQMLSGGWWFDACGPSNLNGQYYPQKQNTNKFNGIKWYYWKGSGYSLKATTMMIRPADF
notes: Bought recombinant protein; also called mouse Ang-2; mAng-2
B3: human angiopoietin-1 (ligand, UniProt Q15389 20-498, looked up)
chain: SNQRRSPENSGRRYNRIQHGQCAYTFILPEHDGNCRESTTDQYNTNALQRDAPHVEPDFSSQKLQHLEHVMENYTQWLQKLENYIVENMKSEMAQIQQNAVQNHTATMLEIGTSLLSQTAEQTRKLTDVETQVLNQTSRLEIQLLENSLSTYKLEKQLLQQTNEILKIHEKNSLLEHKILEMEGKHKEELDTLKEEKENLQGLVTRQTYIIQELEKQLNRATTNNSVLQKQQLELMDTVHNLVNLCTKEGVLLKGGKREEEKPFRDCADVYQAGFNKSGIYTIYINNMPEPKKVFCNMDVNGGGWTVIQHREDGSLDFQRGWKEYKMGFGNPSGEYWLGNEFIFAITSQRQYMLRIELMDWEGNRAYSQYDRFHIGNEKQNYRLYLKGHTGTAGKQSSLILHGADFSTKDADNDNCMCKCALMLTGGWWFDACGPSNLNGMFYTAGQNHGKLNGIKWHYFKGPSYSLRSTTMMIRPLDF
notes: Bought recombinant protein; also called human Ang-1; hAng-1

Key:
[1] = target: T1, hNGAL lipocalin mutein SEQ ID NO: 9; experiment: solution competition ELISA; 0.1 nM SEQ ID NO: 9 with varied soluble ligand, free mutein captured on immobilised hAng-2
T1 construct: Mutein of mature hNGAL; Biotinylated with NHS-PEG4-Biotin for the SPR assay
T1 chain: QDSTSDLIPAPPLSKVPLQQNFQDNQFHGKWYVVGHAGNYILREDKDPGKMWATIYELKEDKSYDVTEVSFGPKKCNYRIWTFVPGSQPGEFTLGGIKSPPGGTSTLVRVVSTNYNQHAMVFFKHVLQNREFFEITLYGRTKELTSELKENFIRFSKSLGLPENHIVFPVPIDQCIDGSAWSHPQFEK
Description: (§1) In the following detailed experimental protocol, incubation and washing steps were performed as described above in the competition ELISA protocol (see Example 5).
(§2) The residual supernatants were discarded and 20 μl HRP-labeled anti-lipocalin-mutein antibody was added at a predetermined optimal concentration in PBS-T/BSA and incubated for 1 h at RT. […] After washing, 20 μl fluorogenic HRP substrate (Quantablue, Pierce) was added to each well, and the reaction was allowed to proceed for 60 minutes. The fluorescence intensity of every well on the plate was read using a Genios Plus Microplate reader (Tecan).

[2] = target: T2, hNGAL lipocalin mutein SEQ ID NO: 11; experiment: solution competition ELISA; 0.1 nM SEQ ID NO: 11 with varied soluble ligand, free mutein captured on immobilised hAng-2
T2 construct: Mutein of mature hNGAL; Biotinylated with NHS-PEG4-Biotin for the SPR assay
T2 chain: T1 chain with H36Q, G49V, P100L
Description: as §1, §2

[3] = target: T3, hNGAL lipocalin mutein SEQ ID NO: 3; experiment: solution competition ELISA; 0.1 nM SEQ ID NO: 3 with varied soluble ligand, free mutein captured on immobilised hAng-2
T3 construct: Mutein of mature hNGAL
T3 chain: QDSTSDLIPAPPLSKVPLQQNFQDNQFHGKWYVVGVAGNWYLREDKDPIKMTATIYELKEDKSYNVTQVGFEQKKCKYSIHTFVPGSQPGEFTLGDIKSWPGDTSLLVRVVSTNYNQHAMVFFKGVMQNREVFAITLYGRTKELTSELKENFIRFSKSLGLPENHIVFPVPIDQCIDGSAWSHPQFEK
Description: as §1, §2

[4] = target: T4, hNGAL lipocalin mutein SEQ ID NO: 8; experiment: solution competition ELISA; 0.1 nM SEQ ID NO: 8 with varied soluble ligand, free mutein captured on immobilised hAng-2
T4 construct: Mutein of mature hNGAL; Biotinylated with NHS-PEG4-Biotin for the SPR assay
T4 chain: T1 chain with H36Q, P73A, P100D
Description: as §1, §2

[5] = target: T5, hNGAL lipocalin mutein SEQ ID NO: 7; experiment: solution competition ELISA; 0.1 nM SEQ ID NO: 7 with varied soluble ligand, free mutein captured on immobilised hAng-2
T5 construct: Mutein of mature hNGAL; Biotinylated with NHS-PEG4-Biotin for the SPR assay
T5 chain: T1 chain with G49E, G103D
Description: as §1, §2

[6] = target: T6, hNGAL lipocalin mutein SEQ ID NO: 1; experiment: solution competition ELISA; 0.1 nM SEQ ID NO: 1 with varied soluble ligand, free mutein captured on immobilised hAng-2
T6 construct: Mutein of mature hNGAL
T6 chain: T1 chain with H36Q, D65N, E68G, R79T
Description: as §1, §2

[7] = target: benchmark antibody 1 (SEQ ID NOs: 17/18); experiment: solution competition ELISA; 0.1 nM SEQ ID NO: 17/18 with varied soluble ligand, free antibody captured on immobilised hAng-2

| Binder | IC50 [1] [pM] | IC50 [2] [pM] | IC50 [3] [pM] | IC50 [4] [pM] | IC50 [5] [pM] | IC50 [6] [pM] | IC50 [7] [pM] |
| --- | --- | --- | --- | --- | --- | --- | --- |
| B1 | 760 | 490 | 1400 | 500 | 410 | 2500 | 600 |
| B2 | 110 | 50 | 1800 | 80 | 50 | 650 | 70 |
| B3 | 1900 | 890 | – | 9300 | 470 | – | 26000 |
